Three molecules from article PMC2185075 (The Journal of Cell Biology, 1999) can be followed below.

Read-outs that look alike come from different tables or passages of the source.

What all share (test): two-hybrid
Test [1] has as its target SC35, two-hybrid fusion (UniProt Q01130).
Test [2] addresses ASF/SF2, two-hybrid fusion (UniProt Q07955).
Test [3] addresses SC35, two-hybrid fusion (UniProt Q01130). This is another data set of the same source.
Test [4] addresses ASF/SF2, two-hybrid fusion (UniProt Q07955). The source holds these as a separate data set.
Test [5] addresses SC35, two-hybrid fusion (UniProt Q01130). This is another data set of the same source.
Test [6] has as its target ASF/SF2, two-hybrid fusion (UniProt Q07955). The source holds these as a separate data set.
The target is the same in test [7]. The source holds these as a separate data set.
In test [8] the target is T1, U2AF65ΔRS, two-hybrid fusion (UniProt P26368 66-475).
T1 sequence (P26368 66-475, stated change not applied): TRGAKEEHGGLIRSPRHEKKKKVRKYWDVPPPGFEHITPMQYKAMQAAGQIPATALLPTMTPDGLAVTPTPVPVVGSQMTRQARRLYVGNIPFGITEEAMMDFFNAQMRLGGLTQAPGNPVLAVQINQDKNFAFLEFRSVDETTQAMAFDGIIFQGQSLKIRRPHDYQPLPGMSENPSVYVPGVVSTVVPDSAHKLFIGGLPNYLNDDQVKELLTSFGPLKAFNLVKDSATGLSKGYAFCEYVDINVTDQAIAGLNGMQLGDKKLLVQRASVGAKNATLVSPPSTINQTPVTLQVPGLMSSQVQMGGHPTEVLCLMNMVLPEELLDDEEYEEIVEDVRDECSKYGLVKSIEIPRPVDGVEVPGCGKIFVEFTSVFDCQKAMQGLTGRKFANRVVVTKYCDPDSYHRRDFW
Test [9] addresses T2, U2AF65, two-hybrid fusion (UniProt P26368 1-475).
Test [10] deals with T1, U2AF65ΔRS, two-hybrid fusion. This is another data set of the same source.
Test [11] deals with T2, U2AF65, two-hybrid fusion. This is another data set of the same source.

ASF/SF2, two-hybrid fusion, sequence (Q07955 whole entry, the tested form may be a part): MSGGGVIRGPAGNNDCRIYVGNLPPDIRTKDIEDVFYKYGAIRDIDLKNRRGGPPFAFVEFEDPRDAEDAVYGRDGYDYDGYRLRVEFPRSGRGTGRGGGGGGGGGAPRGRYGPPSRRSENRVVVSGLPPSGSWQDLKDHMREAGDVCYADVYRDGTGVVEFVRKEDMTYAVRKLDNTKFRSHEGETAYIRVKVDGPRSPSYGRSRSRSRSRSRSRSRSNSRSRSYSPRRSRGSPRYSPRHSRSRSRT
SC35, two-hybrid fusion, sequence (Q01130 whole entry, the tested form may be a part): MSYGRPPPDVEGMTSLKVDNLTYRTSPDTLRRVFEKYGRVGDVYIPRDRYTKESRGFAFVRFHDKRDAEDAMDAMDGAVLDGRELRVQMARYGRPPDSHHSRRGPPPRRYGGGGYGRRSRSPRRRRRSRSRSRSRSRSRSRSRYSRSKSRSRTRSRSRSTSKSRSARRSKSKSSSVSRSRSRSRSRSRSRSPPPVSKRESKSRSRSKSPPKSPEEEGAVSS
T2 sequence (P26368 whole entry, the tested form may be a part, one chain of several): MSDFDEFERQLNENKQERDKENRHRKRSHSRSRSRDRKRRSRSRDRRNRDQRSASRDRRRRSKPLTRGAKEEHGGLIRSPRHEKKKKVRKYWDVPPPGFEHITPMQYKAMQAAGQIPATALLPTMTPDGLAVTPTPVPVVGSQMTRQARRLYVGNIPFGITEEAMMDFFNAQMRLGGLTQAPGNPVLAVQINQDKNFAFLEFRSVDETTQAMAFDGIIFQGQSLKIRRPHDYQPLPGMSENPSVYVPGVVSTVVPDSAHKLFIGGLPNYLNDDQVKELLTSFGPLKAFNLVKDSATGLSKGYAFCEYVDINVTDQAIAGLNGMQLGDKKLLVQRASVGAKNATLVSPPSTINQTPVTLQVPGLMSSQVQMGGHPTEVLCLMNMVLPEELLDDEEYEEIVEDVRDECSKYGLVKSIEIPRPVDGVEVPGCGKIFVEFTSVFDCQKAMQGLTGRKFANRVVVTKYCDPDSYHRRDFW

With “U1-70K, two-hybrid fusion (from UniProt P08621 1-437) (natural protein; other documents disagree on this pair)”, the percentage of the maximal two-hybrid interaction (β-galactosidase) with SC35, two-hybrid fusion [1] is 104%; in test [2] it was 100%; with SC35, two-hybrid fusion [3] it was 86%; in test [4] it was 98%; with SC35, two-hybrid fusion [5] it was 100%; in test [6], 100%. The molecule further registered a percentage of the maximal two-hybrid interaction (β-galactosidase) in test [7] of 35%.

B1: U2AF35, two-hybrid fusion (natural protein)
chain: MAEYLASIFGTEKDKVNCSFYFKIGACRHGDRCSRLHNKPTFSQTIALLNIYRNPQNSSQSADGLRCAVSDVEMQEHYDEFFEEVFTEMEEKYGEVEEMNVCDNLGDHLVGNVYVKFRREEDAEKAVIDLNNRWFNGQPIHAELSPVTDFREACCRQYEMGECTRGGFCNFMHLKPISRELRRELYGRRRKKHRSRSRSRERRSRSRDRGRGGGGGGGGGGGGRERDRRRSRDRERSGRF
With B1, the “two-hybrid β-galactosidase, fold over background (empty prey vector)” value in [8] worked out at 340 fold over background.

B2: U2AF35ΔRS, two-hybrid fusion (domain or fragment)
chain: MAEYLASIFGTEKDKVNCSFYFKIGACRHGDRCSRLHNKPTFSQTIALLNIYRNPQNSSQSADGLRCAVSDVEMQEHYDEFFEEVFTEMEEKYGEVEEMNVCDNLGDHLVGNVYVKFRREEDAEKAVIDLNNRWFNGQPIHAELSPVTDFREACCRQYEMGECTRGGFCNFMHLKPISRELRRELYGRRR
Turning to B2, the “two-hybrid β-galactosidase, fold over background (empty prey vector)” value in [9] stood at 93 fold over background; in test [10], 460 fold over background; in test [11], 308 fold over background; in test [8], 347 fold over background.
